Assay results from patent US20120093811A1 (published 2012).
Substitutions are numbered along the chain they refer to. Each block holds one binder with its values, some of them ahead of it.

Target: T1, VEGF-D (recombinant human; source not given) (human, UniProt O43915 89-205, limits assumed)
T1 construct: also used here as target of IC50 values averaged over Source 1 and Source 2; also called vascular endothelial growth factor-D
T1 sequence: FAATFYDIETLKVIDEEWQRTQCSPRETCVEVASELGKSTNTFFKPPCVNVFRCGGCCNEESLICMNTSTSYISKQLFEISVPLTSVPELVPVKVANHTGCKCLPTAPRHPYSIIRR
Test: SPR (BIAcore) off-rate ranking of scFv clones
Experimental: Screening based on scFv binding properties involved surface plasmon resonance (SPR) measurements with a BIAcore™ biosensor. scFv variants were expressed in 200 μL E. coli cultures and the supernatants used to generate crude off-rate only kinetics, which were assessed “relative” to 1A, or other variants.

B3: scFv clone G37 (scFv)
scFv: QVRLVQSGAEVKQPGASVKVSCKASGYTFTGYNMYWVRQAPGQGLEWMGYIDPYNGDTTYNQKFKGRVTMTTDTSTSTAYMELRSLRSDDTAVYYCARTGYYGGMDYWGRGTLVTVASGGGASGGGGSGGGGSDIVMTQTPLSSPVTLGQPASISCRSSQSLVHSNGNTYLHWLQQRPGQPPRLLIYKVSNRFSGVPDRFSGSGAGTDFTLKISRVEAEDVGVYYCSQSTHVPRTFGQGTKLEIKR
- koff: 0.00586 s⁻¹

B6: scFv clone CZ24 (scFv)
scFv: B3 scFv with R3Q, E10K, S17N, V20A, G100S
- koff: 0.00759 s⁻¹

B7: scFv clone DB29 (scFv)
scFv: B3 scFv with R3Q, E10K, V20A, G100S, S144G
- koff: 0.00575 s⁻¹

B8: scFv clone DD17 (scFv)
scFv: B3 scFv with R3Q, E10K, S17G, V20A, G100S
- koff: 0.0091 s⁻¹

B9: scFv clone DA74 (scFv)
scFv: B3 scFv with R3Q, V5A, E10K, V20A, G100S, F193S
- koff: 0.00424 s⁻¹

B10: scFv clone G38 (scFv)
scFv: B3 scFv with R3Q, A40V, G100S, V114A
- koff: 0.00772 s⁻¹

B11: scFv clone CI67 (scFv)
scFv: B3 scFv with R3Q, V68A, E82K, G100S, T230A
- koff: 0.00379 s⁻¹

B14: scFv clone DD25 (scFv)
scFv: B3 scFv with R3Q, E10K, V20A, M48V, G100S
- koff: 0.00373 s⁻¹

B15: scFv clone CW16 (scFv)
scFv: B3 scFv with R3Q, D89G, G100S, V146A
- koff: 0.00726 s⁻¹

B16: scFv clone CX03 (scFv)
scFv: B3 scFv with R3Q, K19T, G100S, D198G
- koff: 0.00739 s⁻¹

B17: scFv clone DE03 (scFv)
scFv: B3 scFv with R3Q, E10K, V20A, S25G, G100S
- koff: 0.00798 s⁻¹

B20: scFv clone CZ77 (scFv)
scFv: B3 scFv with R3Q, E10K, V20A, K65R, G100S
- koff: 0.00408 s⁻¹

Now from value to binder:

- koff: 0.00795 s⁻¹
B1: scFv clone AA16 (scFv)
scFv: B3 scFv with V2A, R3Q, G100S

- koff: 0.00637 s⁻¹
B2: scFv clone DD76 (scFv)
scFv: B3 scFv with R3Q, E10K, V20A, S75N, G100S

- koff: 0.00522 s⁻¹
B4: scFv clone CK61 (scFv)
scFv: B3 scFv with R3Q, E10K, E82K, G100S

- koff: 0.00362 s⁻¹
B5: scFv clone BF36 (scFv)
scFv: B3 scFv with R3Q, K63R, E82K, G100S, T112A, K212R

- koff: 0.00723 s⁻¹
B12: scFv clone DC56 (scFv)
scFv: B3 scFv with R3Q, E10K, K12R, V20A, G100S

- koff: 0.00637 s⁻¹
B13: scFv clone AC75 (scFv)
scFv: B3 scFv with R3Q, M81V, G100S

- koff: 0.00738 s⁻¹
B18: scFv clone DC64 (scFv)
scFv: B3 scFv with R3Q, E10K, V18M, V20A, G100S

- koff: 0.00464 s⁻¹
B19: scFv clone G11 (scFv)
scFv: B3 scFv with R3Q, G100S, D198G

- koff: 0.00341 s⁻¹
B21: scFv clone D69 (scFv)
scFv: B3 scFv with R3Q, Y95H, G100S, D198G

- koff: 0.00291 s⁻¹
B22: scFv clone CJ17 (scFv)
scFv: B3 scFv with R3Q, K23E, E82K, G100S

- koff: 0.00826 s⁻¹
B23: scFv clone CZ13 (scFv)
scFv: B3 scFv with R3Q, V5A, E10K, V20A, G100S
